Experimental data: US20190241648A1 (STATEN BIOTECHNOLOGY B V, published 2019)
Ends that are not written are not given here.

Columns and labels:
Experiment in all cases: cyclic peptide substitution array
ApoC3 peptide E63Y = biological target: T1, ApoC3 peptide E63Y (human, cyclic (thioether))
T1 peptide: DKFSYFWDLDPEV
Procedure, shortened: (§1)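 Peptide microarrays incubated with antibody samples, then stained with goat anti-human IgG (Fc) DyLight680 and anti-HA DyLight800 control antibodies, scanned at intensity 7/7 (red/green). Secondary-only pre-stain checked background binding; framing HA peptides served as quality control; substitution effects read as changes in spot intensity.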

ApoC3 peptide D68E = biological target: T2, ApoC3 peptide D68E (human, cyclic (thioether))
T2 peptide: DKFSEFWDLEPEV
Procedure, shortened: as §1

ApoC3 peptide D59C = biological target: T3, ApoC3 peptide D59C (human, thioether (positions not given here); not fully specified (C-terminus, bridges))
T3 peptide: CKFSEFWDLDPEV
Procedure, shortened: as §1

ApoC3 peptide D66W = biological target: T4, ApoC3 peptide D66W (human, cyclic (thioether))
T4 peptide: DKFSEFWWLDPEV
Procedure, shortened: as §1

ApoC3 peptide F64S = biological target: T5, ApoC3 peptide F64S (human, thioether (positions not given here); not fully specified (bridges); also: cyclic (thioether), positions not given here)
T5 peptide: DKFSESWDLDPEV
Procedure, shortened: as §1

ApoC3 peptide L67F = biological target: T6, ApoC3 peptide L67F (human, thioether (positions not given here); not fully specified (bridges); also: thioether between a C-terminal Cys side chain and a modified N-terminus, the Cys is not in the chain)
T6 peptide: DKFSEFWDFDPEV
Procedure, shortened: as §1

ApoC3 peptide L67I = biological target: T7, ApoC3 peptide L67I (human, thioether (positions not given here); not fully specified (bridges); also: thioether between a C-terminal Cys side chain and a modified N-terminus, the Cys is not in the chain)
T7 peptide: DKFSEFWDIDPEV
Procedure, shortened: as §1

ApoC3 peptide D66S = biological target: T8, ApoC3 peptide D66S (human, not fully specified; cyclic (thioether))
T8 peptide: DKFSEFWSLDPEV
Procedure, shortened: as §1

ApoC3 peptide K60H = biological target: T9, ApoC3 peptide K60H (human, cyclic (thioether))
T9 peptide: DHFSEFWDLDPEV
Procedure, shortened: as §1

ApoC3 peptide D68T = biological target: T10, ApoC3 peptide D68T (human, cyclic (thioether))
T10 peptide: DKFSEFWDLTPEV
Procedure, shortened: as §1

ApoC3 peptide L67C = biological target: T11, ApoC3 peptide L67C (human, cyclic (thioether))
T11 peptide: DKFSEFWDCDPEV
Procedure, shortened: as §1

ApoC3 peptide F61K = biological target: T12, ApoC3 peptide F61K (human, cyclic (thioether))
T12 peptide: DKKSEFWDLDPEV
Procedure, shortened: as §1

ApoC3 peptide F61W = biological target: T13, ApoC3 peptide F61W (human, cyclic (thioether))
T13 peptide: DKWSEFWDLDPEV
Procedure, shortened: as §1

ApoC3 peptide D66Q = biological target: T14, ApoC3 peptide D66Q (human, not fully specified; cyclic (thioether))
T14 peptide: DKFSEFWQLDPEV
Procedure, shortened: as §1

ApoC3 peptide P69T = biological target: T15, ApoC3 peptide P69T (human, not fully specified; cyclic (thioether))
T15 peptide: DKFSEFWDLDTEV
Procedure, shortened: as §1

ApoC3 peptide F61V = biological target: T16, ApoC3 peptide F61V (human, cyclic (thioether))
T16 peptide: DKVSEFWDLDPEV
Procedure, shortened: as §1

ApoC3 peptide V71H = biological target: T17, ApoC3 peptide V71H (human, thioether (positions not given here); also: cyclic (thioether), ring places not given here)
T17 peptide: DKFSEFWDLDPEH
Procedure, shortened: as §1

ApoC3 peptide D66I = biological target: T18, ApoC3 peptide D66I (human, not fully specified; cyclic (thioether))
T18 peptide: DKFSEFWILDPEV
Procedure, shortened: as §1

ApoC3 peptide F64H = biological target: T19, ApoC3 peptide F64H (human, thioether (positions not given here); not fully specified (bridges); also: cyclic (thioether), positions not given here)
T19 peptide: DKFSEHWDLDPEV
Procedure, shortened: as §1

ApoC3 peptide D59I = biological target: T20, ApoC3 peptide D59I (human, thioether (positions not given here); not fully specified (C-terminus, bridges))
T20 peptide: IKFSEFWDLDPEV
Procedure, shortened: as §1

ApoC3 peptide S62D = biological target: T21, ApoC3 peptide S62D (human, not fully specified; cyclic (thioether))
T21 peptide: DKFDEFWDLDPEV
Procedure, shortened: as §1

ApoC3 peptide E63L = biological target: T22, ApoC3 peptide E63L (human, cyclic (thioether))
T22 peptide: DKFSLFWDLDPEV
Procedure, shortened: as §1

ApoC3 peptide E63A = biological target: T23, ApoC3 peptide E63A (human, not fully specified; cyclic (thioether))
T23 peptide: DKFSAFWDLDPEV
Procedure, shortened: as §1

ApoC3 peptide F64Q = biological target: T24, ApoC3 peptide F64Q (human, thioether (positions not given here); not fully specified (bridges); also: cyclic (thioether), positions not given here)
T24 peptide: DKFSEQWDLDPEV
Procedure, shortened: as §1

ApoC3 peptide D68S = biological target: T25, ApoC3 peptide D68S (human, cyclic (thioether))
T25 peptide: DKFSEFWDLSPEV
Procedure, shortened: as §1

ApoC3 peptide F61T = biological target: T26, ApoC3 peptide F61T (human, cyclic (thioether))
T26 peptide: DKTSEFWDLDPEV
Procedure, shortened: as §1

ApoC3 peptide D66N = biological target: T27, ApoC3 peptide D66N (human, not fully specified; cyclic (thioether))
T27 peptide: DKFSEFWNLDPEV
Procedure, shortened: as §1

ApoC3 peptide S62L = biological target: T28, ApoC3 peptide S62L (human, thioether (positions not given here); also: cyclic (thioether), ring places not given here)
T28 peptide: DKFLEFWDLDPEV
Procedure, shortened: as §1

ApoC3 peptide P69W = biological target: T29, ApoC3 peptide P69W (human, not fully specified; cyclic (thioether))
T29 peptide: DKFSEFWDLDWEV
Procedure, shortened: as §1

ApoC3 peptide P69Y = biological target: T30, ApoC3 peptide P69Y (human, not fully specified; cyclic (thioether))
T30 peptide: DKFSEFWDLDYEV
Procedure, shortened: as §1

ApoC3 peptide E70D = biological target: T31, ApoC3 peptide E70D (human, cyclic (thioether))
T31 peptide: DKFSEFWDLDPDV
Procedure, shortened: as §1

B1: Llama antibody 5E5 (antibody, V domains shown)
VH: QLQLVESGGGLVQPGGSLRLSCAASGFTFGTYSMRWVRQVPRKALEWVSSISTDGGGTAYRDSVKGRFTISRDNAKNTLYLQMNNLKPEDTAIYYCVIAGYSDWGQGTQVTVSS
VL: ATMLTQSPGSLSVVPGESASISCKTSQGLVHSDGKTYFYWFLQKPGQSPQQLIYQVSNRASGVPDRFTGSGSGTDFTLKISGVKAEDAGVYYCAQGTYYPHTFGSGTRLEIK
notes: detected with goat anti-human IgG (Fc); also called mAb 5E5
ApoC3 peptide E63Y
  % of binding to wild-type peptide: 90.9%
ApoC3 peptide D68E
  % of binding to wild-type peptide: 40.1%
ApoC3 peptide D59C
  % of binding to wild-type peptide: 66.2%
ApoC3 peptide D66W
  % of binding to wild-type peptide: 0%
ApoC3 peptide F64S
  % of binding to wild-type peptide: 367%
ApoC3 peptide L67F
  % of binding to wild-type peptide: 0.37%
ApoC3 peptide L67I
  % of binding to wild-type peptide: 46.9%
ApoC3 peptide D66S
  % of binding to wild-type peptide: 0%
ApoC3 peptide K60H
  % of binding to wild-type peptide: 116%
ApoC3 peptide D68T
  % of binding to wild-type peptide: 0.65%
ApoC3 peptide L67C
  % of binding to wild-type peptide: 0%
ApoC3 peptide F61K
  % of binding to wild-type peptide: 13.5%
ApoC3 peptide F61W
  % of binding to wild-type peptide: 15.7%
ApoC3 peptide D66Q
  % of binding to wild-type peptide: 0%
ApoC3 peptide P69T
  % of binding to wild-type peptide: 113%
ApoC3 peptide F61V
  % of binding to wild-type peptide: 20.2%
ApoC3 peptide V71H
  % of binding to wild-type peptide: 72.8%
ApoC3 peptide D66I
  % of binding to wild-type peptide: 0%
ApoC3 peptide F64H
  % of binding to wild-type peptide: 84.5%
ApoC3 peptide D59I
  % of binding to wild-type peptide: 49.1%
ApoC3 peptide S62D
  % of binding to wild-type peptide: 0%
ApoC3 peptide E63L
  % of binding to wild-type peptide: 10.1%
ApoC3 peptide E63A
  % of binding to wild-type peptide: 90.1%
ApoC3 peptide F64Q
  % of binding to wild-type peptide: 130%
ApoC3 peptide D68S
  % of binding to wild-type peptide: 0.17%
ApoC3 peptide F61T
  % of binding to wild-type peptide: 40.3%
ApoC3 peptide D66N
  % of binding to wild-type peptide: 0%
ApoC3 peptide S62L
  % of binding to wild-type peptide: 3.83%
ApoC3 peptide P69W
  % of binding to wild-type peptide: 5.36%
ApoC3 peptide P69Y
  % of binding to wild-type peptide: 15.4%
ApoC3 peptide E70D
  % of binding to wild-type peptide: 82.9%
